# In patent US20110294748A1 (Janssen / Centocor, published 2011):
# Ends that are not written are not given here.
# Molecular target: T1, soluble IGF1R (sIGF1R), extracellular domain of human insulin-like growth factor 1 receptor, carboxy-terminal … (human, UniProt P08069 31-932)
# T1 construct: Bought from R&D Systems; GenBank NP-000866 is printed for the whole receptor; also called IFG1R
# Assay: solid phase phage ELISA, phage lysate on coated sIGF1R
# Protocol: Total of 384 individual phage lysates from the panning were tested for binding specificity towards sIGF1R in a solid phase phage ELISA. Briefly, 100 μl/well of 5 μg/ml sIGF1R (R&D Systems, Minneapolis, Minn.) was bound to Black Maxisorp Plates (Nunc, Rochester, N.Y.), 25 μl of phage lysate added, and the reaction was detected using anti-M13-HRP antibody (EMD Biosciences, Gibbstown, N.J.) and POD substrate (Roche, Indianapolis, Ind.), and the signal detected using a TEKAN plate reader. […] Positive lysates were defined as clones with a sIGF1R specific signal that was three fold above the background of the negative control. A total of 13 clones with unique peptide sequences were obtained with confirmed binding to the sIGF1R (Table 1). From these 13 clones, 3 (clones 5, 13 and 16) cross-reacted with the insulin receptor.
row,Binder,binding result
1,"PVCPSFCYDQYVCPT (peptide, not shown: large carriers, cysteine pairing not given here; also: displayed on phage pIX, Tested as phage lysate) [phage clone 8 (peptide SEQ ID NO: 4 displayed on pIX phage)]",binds
2,"FTCAVYSLSELDCRD (peptide, not shown: large carriers, cysteine pairing not given here; also: displayed on phage pIX, Tested as phage lysate) [phage clone 9 (peptide SEQ ID NO: 5 displayed on pIX phage)]",binds
3,"AGCPSPMPPVDPGFYSAIVQLCRE (peptide, not shown: large carriers, cysteine pairing not given here; also: displayed on phage pIX, Tested as phage lysate) [phage clone 16 (peptide SEQ ID NO: 12 displayed on pIX phage)]",binds
4,"HTCFYPTLMPPELCFD (peptide, not shown: large carriers, cysteine pairing not given here; also: displayed on phage pIX, Tested as phage lysate) [phage clone 11 (peptide SEQ ID NO: 7 displayed on pIX phage)]",binds
5,"DDIDEFLHQLHNLVNNVH (peptide, not shown: large carriers, Tested as phage lysate) [phage clone 17 (peptide SEQ ID NO: 13 displayed on pIX phage)]",binds
6,"AECEWPWLTLELCQS (peptide, not shown: large carriers, cysteine pairing not given here; also: displayed on phage pIX, Tested as phage lysate) [phage clone 6 (peptide SEQ ID NO: 2 displayed on pIX phage)]",binds
7,"VECDTPSITFSPGLEALFWNTCSP (peptide, not shown: large carriers, cysteine pairing not given here; also: displayed on phage pIX, Tested as phage lysate) [phage clone 14 (peptide SEQ ID NO: 10 displayed on pIX phage)]",binds
8,"SNCPPLDMRLTELCVM (peptide, not shown: large carriers, cysteine pairing not given here; also: displayed on phage pIX, Tested as phage lysate) [phage clone 12 (peptide SEQ ID NO: 8 displayed on pIX phage)]",binds
9,"TGCDFPELCRGCHP (peptide, not shown: large carriers, cysteine pairing not given here; also: displayed on phage pIX, Tested as phage lysate) [phage clone 5 (peptide SEQ ID NO: 1 displayed on pIX phage)]",binds
10,"PFCYSGGPLPYPCTY (peptide, not shown: large carriers, cysteine pairing not given here; also: displayed on phage pIX, Tested as phage lysate) [phage clone 7 (peptide SEQ ID NO: 3 displayed on pIX phage)]",binds
11,"LSCYDPTLRTLYCHV (peptide, not shown: large carriers, cysteine pairing not given here; also: displayed on phage pIX, Tested as phage lysate) [phage clone 10 (peptide SEQ ID NO: 6 displayed on pIX phage)]",binds

# Molecular target: T1, soluble IGF1R (sIGF1R), extracellular …
# Assay: ELISA, culture supernatant on 2 µg/ml coated sIGF1R, Attophos detection
# Protocol: The binding of purified peptide-AP fusion proteins to sIGF1R was assessed using ELISA against immobilized sIGF1R. Briefly, bacteria transformed with each peptide-AP fusion expression vector were grown overnight and the following day the cultures were clarified by centrifugation at 4,500 rpm, 4° C. The supernatants were collected and 75 μl of each supernatant was assayed for binding to 2 μg/ml sIGF1R immobilized on ELISA plates. The bound peptides were detected using the Attophos Substrate (Roche, Indianapolis, Ind.) following the manufacturer's recommendation and read using a Molecular Devices M5 plate reader.
row,Binder,binding result
1,"peptide-Alkaline phosphatase-His6 fusion protein of clone 5 (other, Tested as bacterial culture supernatant; also called peptide-AP fusion clone 5) TGCDFPELCRGCHPTPEMPVLENRAAQGDITTPGGARRLTGDQTAALRDSLSDKPAKNIILLIGDGMGDSEITAARNYAEGAGGFFKGIDALPLTGQYTHYALNKKTGKPDYVTDSAASATAWSTGVKTYNGALGVDIHEKDHPTILEMAKAAGLATGNVSTAELQGATPAALVAHVTSRKCYGPSATSEKCPGNALEKGGKGSITEQLLNARADVTLGGGAKTFAETATAGEWQGKTLREQAQTRGYQLVSDAASLNSVTEANQQKPLLGLFADGNMPVRWLGPKATYHGNIDKPAVTCTPNPQRNDSVPTLAQMTDKAIELLSKNEKGFFLQVEGASIDKQNHAANPCGQIGETVDLDEAVQRALEFAKKEGNTLVIVTADHAHASQIVAPDTKAPGLTQALNTKDGAVMVMSYGNSEEDSQEHTGSQLRIAAYGPHAANVVGLTDQTDLFYTMKAALGLKVPGGSGGGSGGGSGGGSGTPEMPVLENRAAQGDITTPGGARRLTGDQTAALRDSLSDKPAKNIILLIGDGMGDSEITAARNYAEGAGGFFKGIDALPLTGQYTHYALNKKTGKPDYVTDSAASATAWSTGVKTYNGALGVDIHEKDHPTILEMAKAAGLATGNVSTAELQGATPAALVAHVTSRKCYGPSATSEKCPGNALEKGGKGSITEQLLNARADVTLGGGAKTFAETATAGEWQGKTLREQAQTRGYQLVSDAASLNSVTEANQQKPLLGLFADGNMPVRWLGPKATYHGNIDKPAVTCTPNPQRNDSVPTLAQMTDKAIELLSKNEKGFFLQVEGASIDKQNHAANPCGQIGETVDLDEAVQRALEFAKKEGNTLVIVTADHAHASQIVAPDTKAPGLTQALNTKDGAVMVMSYGNSEEDSQEHTGSQLRIAAYGPHAANVVGLTDQTDLFYTMKAALGLKVPGNSHHHHHH",binds

# Molecular target: T1, soluble IGF1R (sIGF1R), extracellular …
# Assay: ELISA, serially diluted PG-peptide fusion on coated sIGF1R, one site binding fit
# Protocol: Relative binding affinities of the PG-peptide fusions for sIGF1R were measured using ELISA. The Kds were determined using GraphPad Prism 4 software with a one site binding equation. 100 μl of 2 μg/ml sIGF1R(R&D Systems, Minneapolis, Minn.) in Dulbecco's Phosphate Buffer Saline (DPBS (−/−)) was coated onto a 96 well Black Maxisorp plates (Nunc, Rochester, N.Y.) overnight at 4° C. The plates were washed with TBST and the wells blocked with 200 μl/well Starting Block T20 (TBS) (Pierce, Rockford, Ill.) for 1 hr, room temperature with 300 rpm shaking. 75 μl/well of purified, serially diluted PG-peptide fusions, starting concentration 40 μM, was added into the wells and incubated for 1 h, room temperature with 300 rpm mixing; the volume was brought up to 100 μl with Starting Block T20. The plates were washed 3× with TBST and then probed with 100 μl/well Peroxidase labeled-Rabbit antibody (1:5000) (Rockland, Gilbertsville, Pa.), washed, and the signal was detected using 100 μl/well POD substrate (Roche, Indianapolis, Ind.). Chemiluminescence was detected using a Molecular Devices M5 plate reader.
row,Binder,EC50
1,"PG-peptide fusion of clone 16 (protein G IgG domain with peptide SEQ ID NO: 12 at its C-terminus) (other, also called PG-peptide fusion clone 16) YKLILNGKTLKGETTTEAVDAATAEKVFKQYANDNGVDGEWTYDDATKTFTVTEAGCPSPMPPVDPGFYSAIVQLCRE",8200 nM
2,"PG-peptide fusion of clone 9 (protein G IgG domain with peptide SEQ ID NO: 5 at its C-terminus) (other, also called PG-peptide fusion clone 9) YKLILNGKTLKGETTTEAVDAATAEKVFKQYANDNGVDGEWTYDDATKTFTVTEFTCAVYSLSELDCRD",3500 nM
3,"PG-peptide fusion of clone 10 (protein G IgG domain with peptide SEQ ID NO: 6 at its C-terminus) (other, also called PG-peptide fusion clone 10) YKLILNGKTLKGETTTEAVDAATAEKVFKQYANDNGVDGEWTYDDATKTFTVTELSCYDPTLRTLYCHV",4300 nM
4,"PG-peptide fusion of clone 12 (protein G IgG domain with peptide SEQ ID NO: 8 at its C-terminus) (other, also called PG-peptide fusion clone 12) YKLILNGKTLKGETTTEAVDAATAEKVFKQYANDNGVDGEWTYDDATKTFTVTESNCPPLDMRLTELCVM",1800 nM
5,"PG-peptide fusion of clone 11 (protein G IgG domain with peptide SEQ ID NO: 7 at its C-terminus) (other, also called PG-peptide fusion clone 11) YKLILNGKTLKGETTTEAVDAATAEKVFKQYANDNGVDGEWTYDDATKTFTVTEHTCFYPTLMPPELCFD",1200 nM
6,"PG-peptide fusion of clone 5 (protein G IgG domain with peptide SEQ ID NO: 1 at its C-terminus) (other, also called PG-peptide fusion clone 5) YKLILNGKTLKGETTTEAVDAATAEKVFKQYANDNGVDGEWTYDDATKTFTVTETGCDFPELCRGCHP",750 nM
7,"PG-peptide fusion of clone 8 (protein G IgG domain with peptide SEQ ID NO: 4 at its C-terminus) (other, also called PG-peptide fusion clone 8) YKLILNGKTLKGETTTEAVDAATAEKVFKQYANDNGVDGEWTYDDATKTFTVTEPVCPSFCYDQYVCPT",1600 nM
8,"PG-peptide fusion of clone 6 (protein G IgG domain with peptide SEQ ID NO: 2 at its C-terminus) (other, also called PG-peptide fusion clone 6) YKLILNGKTLKGETTTEAVDAATAEKVFKQYANDNGVDGEWTYDDATKTFTVTEAECEWPWLTLELCQS",1000 nM
9,"PG-peptide fusion of clone 14 (protein G IgG domain with peptide SEQ ID NO: 10 at its C-terminus) (other, also called PG-peptide fusion clone 14) YKLILNGKTLKGETTTEAVDAATAEKVFKQYANDNGVDGEWTYDDATKTFTVTEVECDTPSITFSPGLEALFWNTCSP",850 nM
10,"PG-peptide fusion of clone 7 (protein G IgG domain with peptide SEQ ID NO: 3 at its C-terminus) (other, also called PG-peptide fusion clone 7) YKLILNGKTLKGETTTEAVDAATAEKVFKQYANDNGVDGEWTYDDATKTFTVTEPFCYSGGPLPYPCTY",1800 nM
